Data from the DeepSol protein solubility set.

Assay: soluble on expression in E. coli; label from the status in PepcDB or PDB records

Soluble on expression in E. coli, not soluble:
MGSDKIHHHHHHMTPEQFEVKANPALWERLGMNVERFSGMPKMLTEAFRGIYLSQKNRPARMEYFDGMIAELHSGRVEELVTAKDAGRPVVGTFCVYVPEEVIMAVGGICVGLCGGSQGSIPDAEKVLPRNICPMVKSAFGFKLGKICPYFQAVDLVYGETTCDAKKKTWELLDREVPTHVMEIPQMKRARDKALWLEEVKDFTSKMEEVSGRKATAEGIGAAIRVMNAKRLALQRLNDLRHHTPSPISGKDMLLIQQIAFYDDPARFTANVNELCDELDERIAAGVAVAPAATPRVMVSGTPMALPNWKLHHLIESAGAVVVNEESCIGTRYYKDLTDESTATVDEQLSLLTDRYMKIDCSCFTPNDDRIEQVLVEYRASGAQGLIDYCLQFCHTYNIEAVKLREMCEREGIPFLAIETDYSPEDVGQLQTRIEAFIEQIRG
MGSDKIHHHHHHMTPRSGKTTAGHFRYARYLIESEDENHLVTAYNQEQAYRLFIDGDGTGLMHIFDGNCEIKHDERGDHLLITTPKGNKRVYYKGGGKVNSVGAITGMSLGSVVFCEINLLHMDFIQECFRRTWAAKLRYHLADLNPPAPQHPVIKDVFDVQNTRWTHWTMDDNPILTAERKQNIINSLKKNPYLYKRDVLGQRVMPQGVIYGLFDTEKNVLDALIGEPVEMYFCADGGQSDATSMSCNIVTRVRDNGRISFRLNRVAHYYHSGADTGQVKAMSTYALELKVFIDWCVKKYQMRYTEVFVDPACKSLREELHKLGVFTLGAPNNSKDVSSKAKGIEVGIERGQNIISDGAFYLVNHSEEEYDHYHFLKEIGLYSRDDNGKPIDKDNHAMDEFRYSVNVFVHRYYN
MGSDKIHHHHHHMTPSDTNAPVDRLKIGFVLARSFTLSAFALFVDTLRLASDEFDRSGRVLADWDVLGSTRHLITSSCGVQVAPTSDLVEDPSQFQFIVVVGGLLNNEQPIDRETAAFLKKAAAKNVKLIGVCTGSFILAELGLMKSHRTCVSWLHYNAFRERFPDLQVRSDRIFNLDRTRGSCVGGSSAADMAALIVRRHISKDAERNALEVLHIEKARSALAIQTRKPLSIECNDPRIRATLIMMEQHIEGNLPIQDLAAAVGLSRRQLERLFISETKSSPAMIYRRVRLERAKHLLVQSKAPLVEIALEVGFGNASHFAKVFAQTFGQSPTGLRTAIRATL
MGSDKIHHHHHHMTPTVMVVDESRITFLAVKNALEKDGFNVIWAKNEQEAFTFLRREKIDLVFVDVFEGEESLNLIRRIREEFPDTKVAVLSAYVDKDLIINSVKAGAVDYILKPFRLDYLLERVKKIISSTPRVTVSLRKNIEDLEITLKFEDIVRKEIKRSNRTGSRFCVMYVKFEDIMRDYETIKKFFRETDYVLPISASEYLFVLTLTGKHGIEAVTRRMKEKLSERFSYTYVCYPDDGKTYEEIILTLKDRMAKPRGNES
MGSDKIHHHHHHMTQLFLHSDTPNEKELISIYEKAVSEAVELYIFSAYLTHWDVKNKLNSKLQEFKFIFGQDFGLSKKEAIRKVLKWLPSHLKFTLMVAQGIQGFHPKAVFWKNDKNEYYALIGSSNLTHAAFNSNYEANILTKISEQDFIKVKSWADEIAMKSIPVSEDWLEEYQEAEINYKKSTVRQSVMDKLFMEMPNYNQELIAARRKQMRNHQTVCNQLKNLIKQCAAGKIDNNDFYGEFNKLWSWKSENKGEGVGNRFQDKTWKRTGKSSDFRKLCIAIQSVFDAPLTERDNVVAKQIDWLKECGVSTRGSVFSEMLCQEYPDRYPVLNAPIKKFLEENKFKSAKGASEGSKYIDLSMKLRALLAMQSEIKDLAELDVLVQAEYRNRTDIDWE
MGSDKIHHHHHHMTQQTIYHIGTPGTPWGATEKAQWLAEQTKKRSYFDDVVSKIETFKSDFDVDQYGELAYDSGTYPLFVVRTKNWDDSKPTVLVTGGVHGYETSGVHGALRFIETKAKDYQPHFNVVVAPCLSPWGYETINRWNPAAIDPNRSFVADSPAGECAHIMNYVAGLGVDILAHIDLHETTDTDNSEFRPAKAAMDGKVNTNWNIPDGFYLVGNSEKPYPEFQKAVLDSVEEVTHIADADDENKLIGEDIAQRGVILLPTAKMGLCISFSKAEYATTTEVYPDSPKATPEQCIQAQVAAVTGGLDFLK
